According to article PMC12796746, “Profiling the TRPV4 ankyrin repeat domain interactome and its disruption by neuromuscular disease-causing mutations” (The Journal of Biological Chemistry, 2025):

These binders were tested against T1, TRPV4^WT N-terminal domain (IDR and ARD, amino acids 1-397) (human, UniProt Q9HBA0 1-397) (assay: peptide or protein array; HuProt Human Proteome Microarray v2.0, full-length human proteins spotted in duplicate; V5-tagged TRPV4 protein in solution at 1 μM, 1 h at 4 °C, 150 mM NaCl, 2.7 mM KCl, 25 mM Trizma base, 0.05% Tween-20, pH 7.4; detected with Alexa Fluor 647 anti-V5; hit: z-score >= 2 (N terminus: both of 2 slides; ARD constructs: at least 2 of 3 slides)). Conditions: both partners purified.
T1 construct: TRPV4, human, N-terminal domain (IDR and ARD), amino acids 1-397; also called TRPV4^WT N terminus; full N terminus; source: E. coli BL21(DE3), purified; not shown: His6, C-terminal, kept; V5, C-terminal, kept

| binding result | Binder |
| --- | --- |
| binds | OTUB2 (on the HuProt array) (enzyme, human, UniProt Q96DC9 1-234, looked up, deubiquitinase OTUB2, human, spotted on the HuProt array; source: bought: CDI Laboratories (HuProt v2.0 microarray)) MSETSFNLISEKCDILSILRDHPENRIYRRKIEELSKRFTAIRKTKGDGNCFYRALGYSYLESLLGKSREIFKFKERVLQTPNDLLAAGFEEHKFRNFFNAFYSVVELVEKDGSVSSLLKVFNDQSASDHIVQFLRLLTSAFIRNRADFFRHFIDEEMDIKDFCTHEVEPMATECDHIQITALSQALSIALQVEYVDEMDTALNHHVFPEAATPSVYLLYKTSHYNILYAADKH |

The binders below were run against T2, TRPV4^WT-ARD (amino acids 149-397) (human, UniProt Q9HBA0 149-397) in the same assay as above. Conditions: both partners purified.
T2 construct: TRPV4, human, ankyrin repeat domain, amino acids 149-397; source: E. coli BL21(DE3), purified; not shown: His6, C-terminal, kept; V5, C-terminal, kept

| binding result | Binder |
| --- | --- |
| binds | 3-hydroxybutyrate dehydrogenase type 2 (natural protein, human, UniProt Q9BUT1 1-245, looked up, human, spotted on the HuProt array; also called BDH2; source: bought: CDI Laboratories (HuProt v2.0 microarray)) MGRLDGKVIILTAAAQGIGQAAALAFAREGAKVIATDINESKLQELEKYPGIQTRVLDVTKKKQIDQFANEVERLDVLFNVAGFVHHGTVLDCEEKDWDFSMNLNVRSMYLMIKAFLPKMLAQKSGNIINMSSVASSVKGVVNRCVYSTTKAAVIGLTKSVAADFIQQGIRCNCVCPGTVDTPSLQERIQARGNPEEARNDFLKRQKTGRFATAEEIAMLCVYLASDESAYVTGNPVIIDGGWSL |
| binds | Short coiled-coil protein (natural protein, human, UniProt Q9UIL1 1-159, looked up, human, spotted on the HuProt array; also called SCOC; source: bought: CDI Laboratories (HuProt v2.0 microarray)) MRRRVFSSQDWRASGWDGMGFFSRRTFCGRSGRSCRGQLVQVSRPEVSAGSLLLPAPQAEDHSSRILYPRPKSLLPKMMNADMDAVDAENQVELEEKTRLINQVLELQHTLEDLSARVDAVKEENLKLKSENQVLGQYIENLMSASSVFQTTDTKSKRK |
| binds | Ras-related protein Rab-7L1 (natural protein, human, UniProt O14966 1-203, looked up, human, spotted on the HuProt array; also called RAB29; source: bought: CDI Laboratories (HuProt v2.0 microarray)) MGSRDHLFKVLVVGDAAVGKTSLVQRYSQDSFSKHYKSTVGVDFALKVLQWSDYEIVRLQLWDIAGQERFTSMTRLYYRDASACVIMFDVTNATTFSNSQRWKQDLDSKLTLPNGEPVPCLLLANKCDLSPWAVSRDQIDRFSKENGFTGWTETSVKENKNINEAMRVLIEKMMRNSTEDIMSLSTQGDYINLQTKSSSWSCC |
| binds | Protein FAM104B (natural protein, human, UniProt Q5XKR9 1-115, looked up, human, spotted on the HuProt array; source: bought: CDI Laboratories (HuProt v2.0 microarray)) MGGCPVRKRRRNGSKEGNHHSTQPKRNKRNPIFQDSQDTEFSWSDNERSSSRINIPERASGPEGNLNQIVTEPDANFPQFLHEGLSKPVYVINWFMSFGPEIKLNTSQQGRNQAV |
| binds | 14-3-3 protein eta (natural protein, human, UniProt Q04917 1-246, looked up, human, spotted on the HuProt array; also called YWHAH; source: bought: CDI Laboratories (HuProt v2.0 microarray)) MGDREQLLQRARLAEQAERYDDMASAMKAVTELNEPLSNEDRNLLSVAYKNVVGARRSSWRVISSIEQKTMADGNEKKLEKVKAYREKIEKELETVCNDVLSLLDKFLIKNCNDFQYESKVFYLKMKGDYYRYLAEVASGEKKNSVVEASEAAYKEAFEISKEQMQPTHPIRLGLALNFSVFYYEIQNAPEQACLLAKQAFDDAIAELDTLNEDSYKDSTLIMQLLRDNLTLWTSDQQDEEAGEGN |
| binds | Protein N-terminal glutamine amidohydrolase (natural protein, human, spotted on the HuProt array; also called WDYHV1; source: bought: CDI Laboratories (HuProt v2.0 microarray)) not shown |
| binds | ADP-ribosylation factor-like protein 10 (natural protein, human, UniProt Q8N8L6 1-244, looked up, human, spotted on the HuProt array; also called ARL10; source: bought: CDI Laboratories (HuProt v2.0 microarray)) MAPRPLGPLVLALGGAAAVLGSVLFILWKTYFGRGRERRWDRGEAWWGAEAARLPEWDEWDPEDEEDEEPALEELEQREVLVLGLDGAGKSTFLRVLSGKPPLEGHIPTWGFNSVRLPTKDFEVDLLEIGGSQNLRFYWKEFVSEVDVLVFVVDSADRLRLPWARQELHKLLDKDPDLPVVVVANKQDLSEAMSMGELQRELGLQAIDNQREVFLLAASIAPAGPTFEEPGTVHIWKLLLELLS |
| binds | Huntingtin-interacting protein K (natural protein, human, UniProt Q9NX55 1-121, looked up, human, spotted on the HuProt array; also called HYPK; source: bought: CDI Laboratories (HuProt v2.0 microarray)) MATEGDVELELETETSGPERPPEKPRKHDSGAADLERVTDYAEEKEIQSSNLETAMSVIGDRRSREQKAKQEREKELAKVTIKKEDLELIMTEMEISRAAAERSLREHMGNVVEALIALTN |
| binds | Uncharacterized protein C4orf36 (natural protein, human, UniProt Q96KX1 1-117, looked up, human, spotted on the HuProt array; source: bought: CDI Laboratories (HuProt v2.0 microarray)) MAYGVPRKNTVKTILRGSCYNVQEPWDIALLAKTWSTNLANIKLPFLEEISFGGSVQLTKCTTIKDGLLPSAESIKLEREYEVKRLCKLKCQENTSKEIQLLLRERPAGLRRPLPSK |
| binds | Deoxycytidylate deaminase (natural protein, human, UniProt P32321 1-178, looked up, human, spotted on the HuProt array; also called DCTD; source: bought: CDI Laboratories (HuProt v2.0 microarray)) MSEVSCKKRDDYLEWPEYFMAVAFLSAQRSKDPNSQVGACIVNSENKIVGIGYNGMPNGCSDDVLPWRRTAENKLDTKYPYVCHAELNAIMNKNSTDVKGCSMYVALFPCNECAKLIIQAGIKEVIFMSDKYHDSDEATAARLLFNMAGVTFRKFIPKCSKIVIDFDSINSRPSQKLQ |
| binds | Uncharacterized protein C6orf141 (natural protein, human, UniProt Q5SZD1 1-244, looked up, human, spotted on the HuProt array; source: bought: CDI Laboratories (HuProt v2.0 microarray)) MNDPFARMETRGPQGAANPMDSSRSLGDLGPFPREVGRGAPLAPGARNPATAGASRSQGGGHEDRTADRALGPRAGEELDRESWVREKVLFLLHPERWLGTRGDPAREEVAGAEDLPHAGGEDHGEEPNYPSVFQRQKRISGRRVAPPRDAADPPKYVLVRVEDYQVTQEVLQTSWAKGRMTTRTEEHFVTALTFRSSREGQPGERWGPAESRALQARTGASRVHAAGRRVSPSPGTWLEEIKL |
| binds | Small proline-rich protein 2B (natural protein, human, UniProt P35325 1-72, looked up, human, spotted on the HuProt array; also called SPRR2B; source: bought: CDI Laboratories (HuProt v2.0 microarray)) MSYQQQQCKQPCQPPPVCPTPKCPEPCPPPKCPEPCPPPKCPQPCPPQQCQQKYPPVTPSPPCQPKYPPKSK |
| binds | Centrin-3 (natural protein, human, UniProt O15182 1-167, looked up, human, spotted on the HuProt array; also called CETN3; source: bought: CDI Laboratories (HuProt v2.0 microarray)) MSLALRSELVVDKTKRKKRRELSEEQKQEIKDAFELFDTDKDEAIDYHELKVAMRALGFDVKKADVLKILKDYDREATGKITFEDFNEVVTDWILERDPHEEILKAFKLFDDDDSGKISLRNLRRVARELGENMSDEELRAMIEEFDKDGDGEINQEEFIAIMTGDI |
| binds | Cysteine-rich DPF motif domain-containing protein 1 (natural protein, human, UniProt Q6NVV7 1-123, looked up, human, spotted on the HuProt array; also called CDPF1; source: bought: CDI Laboratories (HuProt v2.0 microarray)) MASHVECRPLGVFECELCTLTAPYSYVGQKPPNTQSMVLLEESYVMKDPFTSDKDRFLVLGSCCSLCSRLVCVGPECSLFYSKRFCLPCVRENINAFPQEIRQDLEKRKAPSKRTPSQPGSRT |
| binds | Myosin light chain 1/3, skeletal muscle isoform (natural protein, human, spotted on the HuProt array; also called MYL1; source: bought: CDI Laboratories (HuProt v2.0 microarray)) not shown |
| binds | Polyadenylate-binding protein-interacting protein 2 (natural protein, human, UniProt Q9BPZ3 1-127, looked up, human, spotted on the HuProt array; also called PAIP2; source: bought: CDI Laboratories (HuProt v2.0 microarray)) MKDPSRSSTSPSIINEDVIINGHSHEDDNPFAEYMWMENEEEFNRQIEEELWEEEFIERCFQEMLEEEEEHEWFIPARDLPQTMDQIQDQFNDLVISDGSSLEDLVVKSNLNPNAKEFVPGVKYGNI |
